Test results from paper PMC10952227.

Assays:
[1] = molecular target: Guanylyl cyclase-A (GC-A), human (human) (UniProt P16066)
[2] = molecular target: Guanylyl cyclase-A (GC-A), human (human) (UniProt P16066); assay: radioligand binding; whole GC-A-expressing QBIHEK293A cells; 50 pmol/L 125I-ANP with increasing concentrations of compound #20; DMEM with 1% BSA; 4°C, 1 h

Sequence of UniProt P16066 (P16066 33-473): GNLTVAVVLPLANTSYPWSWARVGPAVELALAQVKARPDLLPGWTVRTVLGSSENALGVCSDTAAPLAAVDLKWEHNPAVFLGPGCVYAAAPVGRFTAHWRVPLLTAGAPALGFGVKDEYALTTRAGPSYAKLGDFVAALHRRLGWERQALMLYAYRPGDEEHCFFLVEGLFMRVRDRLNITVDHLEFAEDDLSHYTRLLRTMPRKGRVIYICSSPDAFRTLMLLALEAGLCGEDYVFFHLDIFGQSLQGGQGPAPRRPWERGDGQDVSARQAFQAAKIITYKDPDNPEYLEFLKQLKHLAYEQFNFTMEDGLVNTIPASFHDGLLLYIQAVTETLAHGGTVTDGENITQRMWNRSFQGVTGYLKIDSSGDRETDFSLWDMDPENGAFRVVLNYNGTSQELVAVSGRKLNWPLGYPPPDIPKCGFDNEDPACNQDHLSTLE

Substance | cGMP production (AlphaScreen) in GC-A-expressing QBIHEK293A cells, concentration-response of human BNP without compound: EC50 [1] [nM] | increase of binding by increasing concentrations of compound #20 [2] [%]
Brain natriuretic peptide (BNP) | 1 | 
^125I-ANP (peptide) |  | 71
